The text below walks through data of publication PMC2241890.

Positions count from the first letter of the chain named. Like-named read-outs stand apart in the source and are kept apart here.

Common to all, as to test: EMSA
On the technique in general: Mobility shift assays separate free from complexed probe on a gel.

The target of data set [1] is T1, HU alpha-beta heterodimer (Escherichia coli, UniProt P0ACF0;P0ACF4 1-90;1-90).
Data set [2] deals with T1, HU alpha-beta heterodimer. The source holds these as a separate data set.
In data set [3] the target is T1, HU alpha-beta heterodimer. The source holds these as a separate data set.
Data set [4] addresses T1, HU alpha-beta heterodimer. The source holds these as a separate data set.
The target in data set [5] is T1, HU alpha-beta heterodimer. The source holds these as a separate data set.
In data set [6] the target is T1, HU alpha-beta heterodimer. The source holds these as a separate data set.
Data set [7] deals with T1, HU alpha-beta heterodimer. The source holds these as a separate data set.
The target in data set [8] is T1, HU alpha-beta heterodimer. The source holds these as a separate data set.
Data set [9] addresses T1, HU alpha-beta heterodimer. This is another data set of the same source.
Data set [10] deals with T1, HU alpha-beta heterodimer. This is another data set of the same source.

T1 sequence (P0ACF0 whole entry, chain 1 of 2): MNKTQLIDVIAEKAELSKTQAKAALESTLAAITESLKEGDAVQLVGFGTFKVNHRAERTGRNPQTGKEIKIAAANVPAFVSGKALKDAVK
T1 sequence (P0ACF4 whole entry, chain 2 of 2): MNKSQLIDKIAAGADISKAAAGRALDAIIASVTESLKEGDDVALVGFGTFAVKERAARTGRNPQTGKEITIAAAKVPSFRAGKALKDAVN

As a reminder, the Kd is a measure of binding affinity in units of concentration. A lower Kd goes with tighter binding. AGTCTAGAGTGCAGTTGAGTCCTTGCTA (ssDNA) [ssDNA D-28]: the affinity in data set [1], expressed as Kd, was 755 nM.
AGTCTAGAGTGCAGTTGAGTCCTTGCTACGACGGAT (ssDNA) [ssDNA D-36] yielded a Kd in data set [2] of 80 nM.
AGTCTAGAGTGCAGTTGAGTCCTTGCTACGAC (ssDNA) [ssDNA D-32] showed a Kd in data set [3] of 114 nM.
AGTCTAGAGTGCAGTTGAGTCCTTGCTACGACGGATCCCTTAGG (ssDNA) [ssDNA D-44]: the Kd in data set [4] is 40 nM. In other words, the double-digit nanomolar range.

B1: mismatch 4 (dsDNA)
DNA 1: AGTCTAGACTGCAGTTGAGTCCTTGCTAGGACGGATCCCT
DNA 2: AGGGATCCGTCCTAGCAAATGTTCAACTGCAGTCTAGACT
As to B1, the Kd in data set [5] was 21 nM. This counts as double-digit nanomolar.

B2: mismatch 10 (dsDNA)
DNA 1: B1 DNA 1
DNA 2: AGGGATCCGTCCTAGTTGATGTAGCACTGCAGTCTAGACT
As for B2, binding in [6] was put at a Kd of 6 nM. That is a single-digit nanomolar value.

B3: mismatch 8 (dsDNA)
DNA 1: B1 DNA 1
DNA 2: B2 DNA 2 with T16C, C25A
For B3, binding in data set [6] was put at a Kd of 6 nM.

B4: mismatch 6 (dsDNA)
DNA 1: B1 DNA 1
DNA 2: B1 DNA 2 with A18G, T23A
Molecule B4 gave a Kd in data set [6] of 6 nM. This counts as single-digit nanomolar.

B5: dsDNA 40 (dsDNA)
DNA 1: B1 DNA 1 with C9G, G29C
DNA 2: AGGGATCCGTCGTAGCAAGGACTCAACTGCACTCTAGACT
B5 gave a Kd in [7] of 7 nM.

B6: nicked 40 (dsDNA)
DNA 1: B1 DNA 1 with C9G, G29C
DNA 2: AGGGATCCGTCGTAGCAAGG
DNA 3: ACTCAACTGCACTCTAGACT
For the molecule B6, in [8], binding was put at a Kd of 3 nM.
AGTCTAGAGTGCAGTTGAGTCCTTGCTACGACGGATCCCT (ssDNA) [ssDNA D-40]: the affinity in data set [9], expressed as Kd, was 54 nM.
Turning to AGTCTAGAGTGCAGTTGAGTCCTTGCTACGACGGATCCCTTAGGTCAG (ssDNA) [ssDNA D-48], in [2], the Kd was 41 nM. This counts as double-digit nanomolar.
Consider AGTCTAGAGTGCAGTTGAGTCCTT (ssDNA) [ssDNA D-24], for which, in data set [10], the binding result is listed as “binds”.
